For 19 sequences, protein production results are on record in a protein production outcome set (Wang et al. 2014).

The nature of this series: label from the status in PepcDB records.

“MRAALTGGGLVLAYTAVISSADAITKLIAQGYAAPQLYAISGLIVAAISLAAARRNRARALKTVCPRAMALRALATVVASLCFFHTFRLLPFADVFVFIGLMPIMAALMSGLMLDEHARPAAWAALVAGFVGVLCLMPGGIGAIGAGHLWALGGVVTGTFSLILSRYIGRYESNALAQVFYPNLALGLSMAAALPFVWVPMPMLDLAWVGAYAALLFLARWLLVIALRLLAAYVVTPLLNLQFVWMVALGALAFGEWPAPMTWLGAAIVMVSGLYLIWDQMTPTTREQEELSLRTDP”: the protein production entry is reported as “failed”.
With “MRAFDAYKILDEQEAGSLIDLIAPCMDDYLYIIDLKNDTLRISQSAVERFMLPDKFMNDATKHLRTLVYEKDRKLLENHKRKIYDGKEKRYNVLCRLMNSKNLPVWINCRGEVINDEAGKPRYIIGCMNETGTRQRADNISGLLGEKEMASYLYSQPKEKLSGYFIQIGIDDFGIINNVQGQIYGNYILKRVAECIAECLSSGQRIYHLVTDKYMLVDMLSKSQDDVVQLFKRIGEKIDEFIVDENYKSIFSISAGVTDISTLAEDAIECRKKSDFSLKCAKKRGGGSLYFFEEEDYKVSLRKNTILSALRSATVNDFEGFEVYYQPILDSADRIIGAEALLRFFMHSDEGDEMISPVEFIPLLEKSRLIIPVGEFVLNEAAKMCREMQQYIADFRVNINVSYIQIMRGSMANKILTAIRANNLRPESICIEMTESGFMDMTPCFCSFRKKLDENNIQFIIDDFGTGYSNLRYISEMNPDYVKIDKDFTARAMSSEKDYELFRKIIEMVHSINIKICIEGIEKEEWACAMKEIHVDYMQGYLYGRPCEKGVFLNNYGI” the entry was “failed”; with “MRAFFNSSMREKLSQLKARQQKQEMPANLSIIHALRATQEGFEDDGVMRNYDLLESQFKENLTKEDRELLESPKPNLEKLQELKIRLLEKNGIFKPPKQKSQISLVFGMNALVPLGTIKTL”, “failed”.
The value for “MRAFPFFRPVLAQLMKHRVAQESTRRWLDRIIQIIKYAYCQKLRRHFCQATLWKMIQLIVNGQSQLVPSPDSGTDSGTTNDARLNIRQLLEHMGLQGKRIAVERNGEIVPRSQFDQPMLASGDKLEIVVAVGGGLEHHHHHH” was “failed”; that for “MRASSSQGTPMNTALHDNREVVTVCLQHKVLDGSPGTPAAQPPRWKQALLTYLVICPMTMVIPQLLAPLFARFPQLGGVITGNLIVNLFVILPVVFYIMPWVTRRCANWLRG” was “failed”.
The value for “MRCPGCGAAIQFDDPKKPGYIPREVFEKRLEEGKEILCQRCFRMKHYGKLEPVEFDWDFKNQLKSYLGGFDVVVWVIDIFDFEGTYREDIAEILKGKRVIYVINKIDLLPRAVTVKEIKEWVKKRIKTKNTDDIRIVSAEKNFGLTSLVKYLSRLTDKALVVGVTNVGKSSLLNKICTHENTISPFPGTTLGILKRKVKEANLYLYDTPGIMTSDRILDLLDPECQKRVLPREELSRKTFKPDNGRTIFMGGLCRFDIHFETEKNPIFLLFSSKEVTFHETRRERADELMRNRLGDLLIPPCSKTKFENFKWKRETFTLKEGEELAVAGLGWMSVRRGPFTVEVTVPDSVKLVVREALVNPKRLEHHHHHH” was “not failed”; that for “MRCTRLEARRMLSHINENQQPQMVDISEKAVSDRRAVAEALIELPPVFQAYVQGGDLFLKKGPVVQTAIIAGTMAVKRTAEVIPFCHPLPITSCRFETDIESQESGLRIRLRCEVKTCDRTGVEMESLHGVAIAALTIYDMAKALSPHIVIREVRLLAKSGGKKTLGQYPLYGLVLTGGQSQRMGQAKALLDYYGEPHAQYLYNLLAQSCEQVFLSAQPNQWQGTPLADLPTLPDILPQIGPIAGILTALRAYPQVNWLVVACDLPYLTTETLAPLLHHYREDVVATCYHHPQEGFPEPLCAIYTPQALPVFEAAYAEGIYCPVKILQRSPCQRIAPPQPTITANINTPEEYHEALHHVRRP” was “failed”.
Take “MRDFLKLLKKHDELKIIDTPLEVDLEIAHLAYIEAKKPNGGKALLFTQPIRKEHDQIKTFGMPVLMNAFGSFKRLDLLLKTPIESLQQRMQAFLHFNAPKNFTEGLKVLKDLWDLRHIFPKKTTRPKDLIIKQDKEVNLLDLPVLKTWEKDGGAFITMGQVYTQSLDHQKKNLGMYRLQVYDKNHLGLHWQIHKDSQLFFHEYAKAKVKMPVSIAIGGDLLYTWCATAPLPYGIYELMLYGFMRGKKARVMPCLSNSLSVPSDCDIVIEGFVDCEKLELEGPFGDHTGYYTPIEPYPVLEVKTISYKKDSIYLATVVGKPPLEDKYMGYLTERLFLPLLQMNAPNLIEYYMPENGVFHNLILAKIHTRYNAHAKQVMHAFWGVGQMSFVKHAIFVNEDAPNLRDTNAIIEYILENFSKENALISQGVCDALDHASPEYAMGGKLGIDATSKSNTPYPTLLNDSALLALLQDKMQNIVLLKQYYPHTRNPICVISVEKKDKSVIELAKNLLGFEEHLRIVIFVEHASNDLNNPYMLLWRIVNNIDARRDILTSKHCFFIDATNKGVMDKHFREWPTETNCSMEVIENLKKKGLLKDFETLNQKFHLTHSFSTHKEDL”: the protein production entry is “failed”.
The value for “MRDHVEIGIGREARRTYSLDDISVVSSRRTRSSKDVDTTWHIDAYKFDLPFMNHPSDALASPEFVIEMGKQGGLGVINAEGLWGRHADLDEAIAKVIAAYEEGDQAAATRTLQELHAAPLDTELLSERIAQVRDSGEIVAVRVSPQNVREIAPIVIKAGADLLVIQGTLISAEHVNTGGEALNLKEFIGSLDVPVIAGGVNDYTTALHMMRTGAVGIIVGGGENTNSLALGMEVSMATAIADVAAARRDYLDETGGRYVHIIADGSIENSGDVVKAIACGADAVVLGSPLARAEEAAGKGYFWPAVAAHPRFPRGVVTESVDLDEAAPSLEQILHGPSTMPWGVENFEGGLKRALAKCGYTDLKSFQKVSLHVN” was “not failed”; that for “MRDIPLLIPILLILFVSLGLARVKTILVVGAFSLFFVYGYLKGENIGTPRRRIEVNDDVFSVMLILSVIIILIQIANLRGIPLLHPHLRTHLNPKLTGLTYFLGLPSSVYLIIRGKKLGFLYPLMVALYAYRTPVLVALIALTLPYLEDMKKGKKAVEIGVIGIFLLFLISYFRGSLSFLTRIQGTTSVLDVIVKRCSVVGFYKGELQLAGVKSYIFGGLGPRTMIARYLGIPGVTITATLIGGMYLDFGLLSSLEMLLLGFYYGIMKKLRSDVGRSFYYSTLSYGIVGVETGILDLPVYLMILVGLLIAWREFDGNLRKDIRRIISWISSSSNNW” was “failed”; that for “MREEQVSDCGSITLEEWNGSSSTKLFKTATITASSSLSIQRSANRFNHVWRRVLQAFVPEASGFPGSVTPDYVGFQLWDTLQGLSTYTKMMLSTQALLSAIGVGEKSATVIGATFQWFLRDFTGMLGGILFTFYQGSNLDSNAKMWRLVADLMNDIAGVASGATRAALTQHFALQDNAADISAKEGSQETMATMMGMSLGMLLARFTSGNPMAIWLSFLSLTVFHMYVLSPEQVSSMEGVLPLWATSLRSTNSKPLHKRVQLGVRVSSLPRLDMLQLLNGVGASSYKNAKYLLAHIKGNVSVILHKDSKPADVLKSYIHAIVLANLMEKSTSFYSEGEAWIDKHYDELLHKVRLNH” was “failed”.
With “MREHLKLFSLIFSYPDEDKLGKAIALAEGIGLTEIAQTLKQVDIEALQVEYTSLFISSHPSVPCPPYQSYFEEGSVYGKASLRAAELYSKYGLNYVYESEPPDHISVELEFLSMNPELLSDFRDWFLEFAKCVEEKSEIYATFARAFRKFLEKPSKVQS” the entry was “not failed”; with “MRENIIEFIPKEKPCSYLKEERSLFRYFHIEECSSDLYQALLERGWRRFGKYFFVPICKNCKACLSVRKPLANLEFSRSFKRVLSKNRQTGLVIQRPMITEAHLKLYDRYHRRMSEKKGWEYSPITMESYYEMFVEGSGEFGYEFAYYRDERLVGIALVDILERSLSAVYCFYDHDYSDFSLGIFSILKQLELAKRLKIDYFYPGYWIKNHPSMGYKERFAPYEILRNEPDIDALPEWSLQGENE”, “failed”; with “MREQLRAHGIGPNDIHTLLLSHFHADHIAGLRDFPRARILASEPGWRAVRGLSGLAAVRQAFLPGLLPPDMESRLSFVEAFALQALPADLAPFSHGRDVSGCGEVFVVDLPGHAAGHLGAFVLGDAGWTLLASDAAWSEEGYREMRGPSELSFLVQHSRRSYYDTLARLHALHRGGRVDILLTHQEETPCLEHHHHHH”, “failed”.
As to “MRERFDVVIAGAGPAGAQCARDLAERNYEVLVLESEPEDGFPRQSNKSTAGTFMSAMTGFAIPDDVVMNYTDNVVLESPNDHYVRNQTGAVLEFAEFKQWLVSEGRDKGATYRFDSRVSAPIMENGEIVGVRYDGDEEVYADIVIDATGPAAPLAKELDVCNLQRNHQAIGVEYEFEGVEVDHDDYADLRDAMMLRLDHDLAPGGYSWIFHTGEDTAKVGLCYIQNGSHQKYAKDGMGIDDYLEYWLDSDPRFDDAERIEGTQAHRGSAHIQPPDSMSTDNFMAIGDTVPTVDPLWGEGIHKGMKSARAAAATADSALKPDEPDTSAENLSVYDQLWHSEVAPKHNARLMMTELLYLAPNERYDQLMDDLRSTGQDTLRQINGGDRRAIAKLTHLSDMPILVEYARRRLDILEHHHHHH”, the protein production result was “failed”.
The value for “MRERKKYGKHIPKSLSSKINKRKLIQKNICTNYKTIKIIDIYENLPYNQLNNGRTKIKEIILANDVLVVLLISGISRAYNMINGEFLCEINPNNFSVVHTIVYNSYNNTLIIAYASFPAHLQCKVIDCNDLKHGITNSSKLGILFGT” was “failed”; that for “MREVKLVTFDVWNTLLDLNIMLDEFSHQLAKISGLHIKDVANAVIEVRNEIKKMRAQASEDPRKVLTGSQEALAGKLKVDVELVKRATARAILNVDESLVLEGTKEALQFVKERGLKTAVIGNVMFWPGSYTRLLLERFGLMEFIDKTFFADEVLSYKPRKEMFEKVLNSFEVKPEESLHIGDTYAEDYQGARKVGMWAVWINQEGDKVRKLEERGFEIPSIANLKDVIELISKT” was “not failed”.
The value for “MRFDKSCQARAPSAPDGPGVLRFTIFRGEAKKRKAAVSVAGRFCAVACFLRLGSAGLSRCPCYFSPMLERRIVVAVPARDEGAGVVATLRALAAQEGAPPFQTLLLVNNSRDDTAAQARAFARQMPGFRLQVEEVALPPREANVVGARRAALDWAAALAGSDGIIVSTDADTQAAPDWLAALVQPLCANRAVQASAGRILLRATERAALPEPVRRTYLLDTGYRDAASRLRARVLPDPFDPAPRHWQHFGASLALRVSAYRAVGGVPQVPCLEDLALVRALARADLPLRHTPRARVYTSARLCGRVPVGLSTQLGEWARGPQHWRVPGGAEVLRLAQAEAALRRSWQARRLAPKLTAQWLTSEAALGAALHAPRWGLALERAHEVREAEGRWQRTFAPIPVWDALQEVRALLSTLPEERPLTAEVCAP” was “failed”; that for “MRFFYFSGEIMEKILVIRNDKLGDFMQAWPAFAMLKASNPKLKLTALVPSYTASLAEICPFIDHVIIDSKKNDKTDFKRLVQEIKAQQFDGMISFFSNTHNGKLAWKSGIKYRLAPATKWVQILYNHRLTQRRSRSEKSEAEYNQDLVRTFLQKHNMPVVEPKPPYLIFEKSAVENQRVFLQENLGLSANKKWIFVHSGSGGSATNLSLAQYADLIKGLLAEFDCNVVLTAGPGESEKAYELANLVNDLRVAIYDKNKGLVDFAHSLACADLFIAGSTGPLHLSSAFNIPTIGFYPNSRSSQPRRWKPINDVDKHIAFCPPAGKESQMNLELISIDNALAEISLFIRNMWQTSNNI” was “failed”.
